Molecular target: T1, Strep-PhoR, sensor kinase PhoR from E. coli, purified (E. coli, UniProt P08400 1-431)
T1 construct: sensor kinase PhoR of Escherichia coli; one of 'both Strep-PhoR proteins' of the methods; also called E. coli PhoR; source: E. coli BL21, purified (membranes solubilised with Triton X-100, Strep-Tactin)
T1 sequence (looked up): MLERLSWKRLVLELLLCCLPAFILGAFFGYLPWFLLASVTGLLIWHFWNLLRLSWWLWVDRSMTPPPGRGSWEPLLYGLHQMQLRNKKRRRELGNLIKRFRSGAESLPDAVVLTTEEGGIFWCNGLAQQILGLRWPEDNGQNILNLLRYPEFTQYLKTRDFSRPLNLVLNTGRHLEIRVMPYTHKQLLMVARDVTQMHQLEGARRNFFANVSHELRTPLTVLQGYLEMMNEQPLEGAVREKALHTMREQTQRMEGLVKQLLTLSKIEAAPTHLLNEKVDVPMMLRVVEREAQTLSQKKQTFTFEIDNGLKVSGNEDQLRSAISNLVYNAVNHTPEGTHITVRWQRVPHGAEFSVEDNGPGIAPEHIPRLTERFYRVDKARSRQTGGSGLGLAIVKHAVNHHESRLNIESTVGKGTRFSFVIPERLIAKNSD
Assay: far-Western, overlay or dot blot; Far-Western dot blot: Strep-tagged bait proteins spotted on a nitrocellulose membrane, incubated with His-SUMO-tagged DUF1127 protein, detected with anti-His antibody; EveryBlot blocking buffer, PBST washes (for E. coli PhoR and YjiS, Fig. 8B, it is not told who was spotted)
Conditions: both partners purified

B1: YjiS from E. coli, purified (natural protein, UniProt P39390 1-54, looked up)
chain: MEFHENRAKAPFIGLVQLWQAVRRWRRQMQTRRVLQQMSDERLKDIGLRREDVE
notes: YjiS, the sole DUF1127 protein of Escherichia coli, a 54-amino acid protein; also called E. coli YjiS
B1: binds.
